Assay results published in patent US20140220040A1 (ARCA BIOPHARMA, published 2014).

T1: Human LRP6-Fc (R&D Systems), recombinant human LRP6 containing the complete extracellular domain (human, UniProt O75581 20-1370)
T1 construct: Bought protein; also called hLRP6; Fc-antigen; not shown: Fc part of the bought fusion protein
T1 sequence: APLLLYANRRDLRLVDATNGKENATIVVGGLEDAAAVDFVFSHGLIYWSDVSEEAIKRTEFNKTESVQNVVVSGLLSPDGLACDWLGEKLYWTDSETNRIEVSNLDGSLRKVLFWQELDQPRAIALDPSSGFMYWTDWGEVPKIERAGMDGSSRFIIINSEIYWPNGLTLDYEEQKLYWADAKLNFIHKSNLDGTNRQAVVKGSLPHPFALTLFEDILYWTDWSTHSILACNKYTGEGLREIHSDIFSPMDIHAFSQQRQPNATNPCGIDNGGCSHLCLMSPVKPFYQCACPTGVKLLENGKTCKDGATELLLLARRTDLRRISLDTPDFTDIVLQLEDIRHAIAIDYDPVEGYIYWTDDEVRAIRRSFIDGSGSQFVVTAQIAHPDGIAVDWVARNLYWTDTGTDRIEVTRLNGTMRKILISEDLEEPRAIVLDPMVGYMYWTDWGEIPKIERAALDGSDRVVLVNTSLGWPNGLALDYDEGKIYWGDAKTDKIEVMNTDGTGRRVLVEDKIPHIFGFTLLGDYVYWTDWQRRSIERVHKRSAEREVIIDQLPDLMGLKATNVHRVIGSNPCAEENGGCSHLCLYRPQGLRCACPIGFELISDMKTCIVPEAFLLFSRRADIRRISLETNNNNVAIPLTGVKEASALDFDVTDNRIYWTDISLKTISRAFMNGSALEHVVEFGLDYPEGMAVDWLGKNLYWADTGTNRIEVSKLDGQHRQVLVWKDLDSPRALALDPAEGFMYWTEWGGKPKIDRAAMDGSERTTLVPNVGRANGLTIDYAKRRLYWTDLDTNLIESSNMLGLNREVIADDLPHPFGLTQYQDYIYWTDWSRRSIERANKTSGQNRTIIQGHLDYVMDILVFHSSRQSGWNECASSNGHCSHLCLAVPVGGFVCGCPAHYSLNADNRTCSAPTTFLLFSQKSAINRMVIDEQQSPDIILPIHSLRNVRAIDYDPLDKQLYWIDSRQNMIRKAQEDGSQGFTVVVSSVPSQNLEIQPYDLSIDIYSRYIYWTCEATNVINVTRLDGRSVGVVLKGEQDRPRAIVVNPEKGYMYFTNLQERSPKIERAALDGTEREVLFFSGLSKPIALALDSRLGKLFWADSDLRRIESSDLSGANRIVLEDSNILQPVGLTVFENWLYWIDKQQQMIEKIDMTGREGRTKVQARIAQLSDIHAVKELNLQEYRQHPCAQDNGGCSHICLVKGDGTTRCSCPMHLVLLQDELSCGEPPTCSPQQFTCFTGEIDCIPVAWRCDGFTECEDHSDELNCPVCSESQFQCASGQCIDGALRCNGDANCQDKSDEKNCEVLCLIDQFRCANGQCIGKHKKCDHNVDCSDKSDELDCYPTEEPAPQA

T2: LRP6Δ1-2 propeller domain deletion construct (human, UniProt O75581 629-1613)
T2 construct: Deletion construct of human LRP6 expressed in 293 cells
T2 sequence: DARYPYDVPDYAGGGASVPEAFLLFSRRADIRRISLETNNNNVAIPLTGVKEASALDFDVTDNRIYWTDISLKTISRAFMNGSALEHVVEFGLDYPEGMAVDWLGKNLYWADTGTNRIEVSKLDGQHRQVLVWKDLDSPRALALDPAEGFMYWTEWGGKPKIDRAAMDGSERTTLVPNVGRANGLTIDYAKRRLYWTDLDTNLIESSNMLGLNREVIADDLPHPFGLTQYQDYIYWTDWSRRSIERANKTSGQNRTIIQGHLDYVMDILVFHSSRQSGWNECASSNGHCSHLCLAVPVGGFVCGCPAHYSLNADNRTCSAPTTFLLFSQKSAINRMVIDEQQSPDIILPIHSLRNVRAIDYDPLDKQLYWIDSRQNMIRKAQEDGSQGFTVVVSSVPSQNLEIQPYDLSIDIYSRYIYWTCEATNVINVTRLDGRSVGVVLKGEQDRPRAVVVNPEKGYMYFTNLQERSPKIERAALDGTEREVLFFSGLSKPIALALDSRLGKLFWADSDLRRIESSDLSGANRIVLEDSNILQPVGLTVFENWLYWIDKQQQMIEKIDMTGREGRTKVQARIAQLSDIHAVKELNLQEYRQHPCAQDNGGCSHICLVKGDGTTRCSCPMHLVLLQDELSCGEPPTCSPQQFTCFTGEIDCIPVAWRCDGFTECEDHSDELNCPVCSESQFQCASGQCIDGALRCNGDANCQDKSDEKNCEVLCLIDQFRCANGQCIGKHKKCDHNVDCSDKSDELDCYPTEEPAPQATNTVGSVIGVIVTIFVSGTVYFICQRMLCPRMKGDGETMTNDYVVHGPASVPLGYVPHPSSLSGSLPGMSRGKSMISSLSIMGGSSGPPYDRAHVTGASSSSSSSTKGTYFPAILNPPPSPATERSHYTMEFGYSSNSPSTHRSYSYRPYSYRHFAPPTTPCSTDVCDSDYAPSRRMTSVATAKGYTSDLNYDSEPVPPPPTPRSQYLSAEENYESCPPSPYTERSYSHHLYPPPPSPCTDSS

T3: LRP6Δ1/4
T3 construct: also called LRP6Del1-4
T3 chain: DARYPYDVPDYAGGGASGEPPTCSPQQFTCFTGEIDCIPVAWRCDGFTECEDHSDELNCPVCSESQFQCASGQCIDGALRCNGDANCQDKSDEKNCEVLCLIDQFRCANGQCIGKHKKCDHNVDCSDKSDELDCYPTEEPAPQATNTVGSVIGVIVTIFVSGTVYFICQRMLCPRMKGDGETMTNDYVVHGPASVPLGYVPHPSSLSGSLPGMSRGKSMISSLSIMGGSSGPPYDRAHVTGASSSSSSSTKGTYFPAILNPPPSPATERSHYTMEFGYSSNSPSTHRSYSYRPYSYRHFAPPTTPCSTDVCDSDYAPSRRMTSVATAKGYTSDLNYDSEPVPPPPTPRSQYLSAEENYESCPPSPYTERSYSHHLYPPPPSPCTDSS


Key:
[1] = target: T1, Human LRP6-Fc (R&D Systems), …; assay: SPR (BIAcore): mAb captured on an anti-mouse chip, Fc-antigen injected from 45 nM in 3-fold dilutions, 1:1 fit. The sheet prints no unit for ka; the unit is from the head of Table 4. [cont., panel R]
Protocol: (§1) Kinetic rate constants (kₐ and kd) were determined using surface plasmon resonance, and affinities (KD) were then calculated from the rate constants (kd/kₐ). Surface plasmon resonance was carried out on a BIAcore system (Biacore International AB, Uppsala, Sweden). Each murine anti-LRP6 mAb sample was diluted 100 fold and captured onto an anti-mouse sensor chip surface. The running buffer contained 10 mM HEPES, 150 mM NaCl, 0.005% Tween-20 and 0.1 mg/ml BSA. Following the capturing step, the Fc-antigen was injected at 45 nM as the highest concentration in a 3-fold dilution series. The association and dissociation phases were monitored for 8 and 60 minutes, respectively. The antigen response data were fit into a 1:1 interaction model.

[2] = target: T1, Human LRP6-Fc (R&D Systems), …; assay: SPR (BIAcore): mAb captured on an anti-mouse chip, Fc-antigen injected from 45 nM in 3-fold dilutions, 1:1 fit. The sheet prints no unit for kd; the unit is from the head of Table 4. [cont., panel R]
Protocol: as §1

[3] = target: T1, Human LRP6-Fc (R&D Systems), …; assay: SPR (BIAcore): mAb captured on an anti-mouse chip, Fc-antigen injected from 45 nM in 3-fold dilutions, 1:1 fit [cont., panel R]
Protocol: as §1

[4] = target: T1, Human LRP6-Fc (R&D Systems), …; assay: SPR (BIAcore), mAb captured on anti-mouse chip, Fc-antigen injected, 1:1 model
Protocol: as §1

[5] = target: T2, LRP6Δ1-2 propeller domain deletion …; assay: flow cytometry on 293 cells expressing the deletion construct
Protocol: (§2) To identify the region of LRP6 that is recognized by LRP6 mAbs, a series of LRP6 propeller domain deletion constructs were made (SEQ ID NO: 6-15) and expressed in 293 cells. Binding of anti-LRP6 mAbs was determined by flow cytometry. […] Amino acid sequence alignments of the heavy and light chain variable domains of the anti-LRP6 mAbs disclosed herein are shown in FIGS. 4 and 5, respectively.

LRP6Δ1/4 = target: T3, LRP6Δ1/4; assay: FACS on 293 cells transfected with LRP6Δ1/4 [cont.]
Protocol: as §2

kon [1] [M⁻¹ s⁻¹] | koff [2] [s⁻¹] | Kd [3] [nM] | Kd [4] [nM] | koff [4] [s⁻¹] | kon [4] [M⁻¹ s⁻¹] | binding result [5] | binding result (LRP6Δ1/4) | Binder
20800 | 7.3e-05 | 3.51 |  |  |  |  |  | anti-LRP6 monoclonal antibody 1470.2 (antibody, V domains shown, Murine hybridoma mAb, protein G purified; also called VH22/VL22) VH: DVNLVESGGGLVKLGGSLKLSCAASGFTFSSFYMSWVRQTPEKRLDLVAAINTNGGSTYYSDTVKGRFTISRDNAKNTLYLQMSSLKSEDTALFYCARQPYYGGPMDFWGQGTSVTVSS VL: DIVLTQSPATLSVTPGDSVSLSCRASQSINNNLHWYQQKSHESPRLLIKYASQSISGIPSRFSGSGSGTDFTLSINSVETEDFGMYFCQQSNNWPLTFGAGTKLEL
 |  |  | 2.79 | 9.4e-05 | 33700 |  |  | anti-LRP6 monoclonal antibody 1903.1 (antibody, V domains shown, Murine hybridoma mAb, protein G purified; also called VH23/VL23) VH: DVNLVESGGGLVKLGGSLKLSCAASGFTFSRFYMSWVRQTPEKRLDLVAAINTNGGSTYYSDTVKGRFTISRDNAKNTLYLQMSSLKSEDTALFYCARQPYYGGPMEFWGQGTSVTVSS VL: DIVMTQSQKFMSTSVGDRVSVTCKASQNVGTNVAWYQQKPGQSPKALIYSASYRYSGVPDRFTGSGSGSDFTLTISNVQSEDLAEYFCQQYNSYPLTFGAGTKLEL
 |  |  | 0.73 | 1.9e-05 | 26300 | no binding | no binding (tested: not stated) | anti-LRP6 monoclonal antibody 135.16 (antibody, V domains shown, Murine hybridoma mAb, protein G purified; also called mAb135.16) VH: QVQLQQSGAELVKPGASVKMSCKAFGYTFTSYPIEWMKQNHGKSLEWIGNFHPYNDNTKYNEKFKGKAKLTVEKSSSTVYLELSRSTSDDSAVYYCARGYSGNYFSAMDYWGQGTSVTVSS VL: DIVMTQSQKFMSTSVGDRVSITCKASQNVRNDVAWYQQKPGQSPKSLIYLASNRHTGVPDRFTGSGSGTDFTLTISNVQSEDLADYFCLQHWNYPYTFGGGTKLEIKR
